Assay results reported in paper PMC4031664 (Prion, 2013).

Columns and labels:
native gel or EMSA = target: the molecule itself; assay: native gel or EMSA
[1] = target: the molecule itself

B1: Syrian hamster PrP90–232 (domain or fragment)
chain: not shown
binding result (native gel or EMSA): binds

B2: full-length PrP (mouse PrP 23–231) (natural protein)
chain: not shown
binding result (native gel or EMSA): binds

B3: C-terminal PrP domain (mouse PrP 120–231) (domain or fragment)
chain: not shown
binding result (native gel or EMSA): binds

B4: PrP-like ectodomain of ZIP5 (domain or fragment)
chain: WVGGSVPNLGPAEQEQNHYLAQLFGLYGENGTLTAGGLARLLHSLGLGRVQGLRLGHHEPPTGRAAPTSGDNFTHRLQEPELSVDIWAGMPLGPSGWGDQEESKAPDLHGSGPSSLDLFQRLLLLDHSLADHLNEDCLNGSQLLVNFGLSPVAPLTPRQFALLCPALLYQIDSRVCIKTPAPAPPGDVLSA
stoichiometry N [1]: 2
